Numbering of substitutions follows the chain as printed. Names may count otherwise.
B1: PT/66 anti-PHF-Tau monoclonal Ab (mouse parent) (antibody, V domains shown)
VH: QVQLQQPGAELVKPGASVKMSCKASGYTFTSYWITWVKQRPGQGLEWIGDIHPGRGSTKSNEKFKSKATLTVDTSSSTAYMQFSSLTSEDSAVYYCARRWGFDYWGQGTTLTVSS
VL: DIVITQDELSNPVTSGESVSISCRSSKSLLYKDGKTYLNWFLQRPGQSPQLLIYLMSTRASGVSDRFSGSGSGTDFTLEISRVKAEDVGVYYCQQLVDYPLTFGAGTKLELK
notes: Murine mAb
B2: PT1B545 (antibody, mouse IgG2a, kappa, V domains shown)
VH: B1 VH
VL: DIVITQDELSNPVTSGESVSISCRSSKSLLYKDGKTYLNWFLQRPGQSPQLLIYLMSTRASGVSDRFSGSGSGTDFTLEISRVKAEDVGVYYCQQLVDYPLTFGAGTKLELKR
notes: Recombinant version of the parent mAb PT/66, with mouse constant regions; also called rec. parent; recombinant parent of PT/66
B3: PT1B635 (antibody, human IgG1, kappa, V domains shown)
VH: QVQLVQSGAEVKKPGASVKVSCKASGYTFTSYWITWVRQAPGQGLEWMGDIHPGRGSTKYAQKLQGRVTLTTDTSTSTAYMELRSLRSDDTAVYYCARRWGFDYWGQGTLVTVSS
VL: DIVITQTPLSLPVTPGEPASISCRSSKSLLYKDGKTYLNWFLQKPGQSPQLLIYLMSTRASGVPDRFSGSGSGTDFTLKISRVEAEDVGVYYCQQLVDYPLTFGQGTKLEIKR
notes: also called humanized PT/66 variant
B4: PT1B1183 (antibody, human IgG1, kappa, V domains shown)
VH: B3 VH with A40R, L70M
VL: B3 VL with I4M, L11S, P15L, E17Q, L42Q, K44R, Q50R, S72A
notes: also called humanized antibody derived from PT1B1153 by modifying the 2nd light chain framework region
B5: PT1B901 (antibody, human IgG1, kappa, V domains shown)
VH: B3 VH
VL: B3 VL with G34L
notes: also called humanized PT/66 variant with G44L in LCDR1

Assays:
[1] = molecular target: T1, human full-length recombinant tau (2N4R) (human, UniProt P10636 2-758); test: SPR, Biacore T200, 25 C, mAb captured by anti-Fc on CM4 chip, tau in solution, 1:1 Langmuir fit; koff based on 1-hour limit, 5% dissociation
T1 construct: also called full length tau protein; full-length recombinant Tau protein
T1 sequence (P10636 other isoform, or with tags, fused parts or gaps limits assumed): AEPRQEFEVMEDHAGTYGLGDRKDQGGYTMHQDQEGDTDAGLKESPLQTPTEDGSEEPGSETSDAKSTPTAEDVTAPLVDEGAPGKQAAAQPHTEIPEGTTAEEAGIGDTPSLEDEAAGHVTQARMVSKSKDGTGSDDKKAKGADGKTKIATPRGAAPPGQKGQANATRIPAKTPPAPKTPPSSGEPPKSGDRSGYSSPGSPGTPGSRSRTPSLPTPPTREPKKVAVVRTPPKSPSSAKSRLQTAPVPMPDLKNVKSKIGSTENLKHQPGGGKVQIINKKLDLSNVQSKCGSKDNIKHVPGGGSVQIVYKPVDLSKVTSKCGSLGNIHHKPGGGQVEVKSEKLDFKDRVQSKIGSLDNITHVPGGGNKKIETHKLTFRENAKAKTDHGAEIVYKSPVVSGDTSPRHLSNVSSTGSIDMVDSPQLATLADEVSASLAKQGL
Protocol: (§1) The interactions of anti-tau antibodies with human full-length recombinant tau (2N4R) were studied by SPR using a Biacore T200 at 25° C. with HBS pH 7.4 buffer, supplemented with 3 mM EDTA, and 0.05% Tween 20. Briefly, a biosensor surface was prepared by coupling a mixture of anti-mouse/anti-human IgG Fcγ-fragment specific antibody to the surface of a CM4 sensor chip using manufacturer's instructions for amine-coupling chemistry (>4000 response units (RU)). The coupling buffer was 10 mM sodium acetate, pH 4.5. The anti-tau antibodies were diluted in the running buffer and injected to obtain enough capture to enable detection of antigen binding. Capture of anti-tau mAbs was followed by injection of recombinantly expressed tau solutions ranging from 0.12 nM to 75 nM at 5-fold dilutions. The association and dissociation were monitored for 3 minutes and 60 min respectively at 50 μL/min flow rate. Regeneration of the sensor surface was performed with 0.85% H₃PO₄. The binding sensorgrams were fitted using to a 1:1 Langmuir binding model to obtain on-rates, off-rates, and affinities. PT1B635 and PT1B901 bound to full length tau protein with similar tight affinities as the parent mAbs, PT/66 or PT1B545 (FIG. 3 and Table 2 below).

[2] = molecular target: T1, human full-length recombinant tau (2N4R); test: SPR, Biacore T200, 25 C, mAb captured by anti-Fc on CM4 chip, tau in solution, 1:1 Langmuir fit
Protocol: as §1

[3] = molecular target: T1, human full-length recombinant tau (2N4R); test: SPR, mAb captured, tau in solution, single-cycle kinetics, 1:1 Langmuir fit; koff based on 2-hour limit, 5% dissociation
[4] = molecular target: T1, human full-length recombinant tau (2N4R); test: SPR, mAb captured, tau in solution, single-cycle kinetics, 120 min dissociation, 1:1 Langmuir fit

Row | Binder | koff [1] | Kd [2] | kon [2] | koff [3] | Kd [4] | kon [4] | koff [2]
1 | B1 | < 1.42e-05 s⁻¹ | < 0.031 nM | 450000 M⁻¹ s⁻¹ | – | – | – | –
2 | B2 | < 1.42e-05 s⁻¹ | < 0.028 nM | 510000 M⁻¹ s⁻¹ | – | – | – | –
3 | B3 | < 1.42e-05 s⁻¹ | < 0.041 nM | 370000 M⁻¹ s⁻¹ | – | – | – | –
4 | B4 | – | – | – | < 1.19e-05 s⁻¹ | < 0.00618 nM | 1.99e+06 M⁻¹ s⁻¹ | –
5 | B5 | – | 0.059 nM | 300000 M⁻¹ s⁻¹ | – | – | – | 2e-05 s⁻¹

Reference: patent publication US20240166731A1 (Janssen / Centocor, published 2024)
